This is an account of results in article PMC2819690.

Assay [1] deals with ΔN complex (Syb49–96:SyxH3:SNAP-25) (rat) (UniProt P63045). The experiment in a line: fluorescence polarisation.
The target is the same in assay [2]. The experiment in a line: ITC.

Regarding “Syb1–96 V39A, V42A, S28C, labeled (from UniProt P63045 1-96) (domain or fragment)”, the on-rate constant (kon) in assay [1] is 263000 M⁻¹ s⁻¹.
With “Syb F77A (from UniProt P63045 1-96) (domain or fragment)”, in assay [2], the Kd is 0.8 nM and the dH was -18.8 kcal/mol.
